This note sets out measurements from US20090281024A1 (RAPTOR PHARMACEUTICALS, published 2009).

The labels stand for the following.
B1: RAP d3 E217K (ligand, human, UniProt P30533 235-353, looked up)
chain: LDRLRRVSHQGYSTEAKFEEPRVIDLWDLAQSANLTDKELEAFREELKHFEAKIEKHNHYQKQLEIAHEKLRHAESVGDGERVSRSREKHALLEGRTKELGYTVKKHLQDLSGRISRAR
notes: range 201-319 (mature RAP numbering); Forward mutant of m1; same construct; also called RAP E217K; not shown: N-terminal hexahistidine and S-peptide tags of pET30(+)a
B2: RAP d3 E251K, K256A, K270E (ligand, human, UniProt P30533 235-353, looked up)
chain: LDRLRRVSHQGYSTEAEFEEPRVIDLWDLAQSANLTDKELEAFREELKHFKAKIEAHNHYQKQLEIAHEELRHAESVGDGERVSRSREKHALLEGRTKELGYTVKKHLQDLSGRISRAR
notes: range 201-319 (mature RAP numbering); Forward mutant of m1; same construct; also called RAP E251K, K256A, K270E; not shown: N-terminal hexahistidine and S-peptide tags of pET30(+)a
B3: RAP d3 E251K (ligand, human, UniProt P30533 235-353, looked up)
chain: LDRLRRVSHQGYSTEAEFEEPRVIDLWDLAQSANLTDKELEAFREELKHFKAKIEKHNHYQKQLEIAHEKLRHAESVGDGERVSRSREKHALLEGRTKELGYTVKKHLQDLSGRISRAR
notes: range 201-319 (mature RAP numbering); Forward mutant of m1; same construct; also called RAP E251K; not shown: N-terminal hexahistidine and S-peptide tags of pET30(+)a
B4: RAP d3 K256A, K270E (ligand, human, UniProt P30533 235-353, looked up)
chain: LDRLRRVSHQGYSTEAEFEEPRVIDLWDLAQSANLTDKELEAFREELKHFEAKIEAHNHYQKQLEIAHEELRHAESVGDGERVSRSREKHALLEGRTKELGYTVKKHLQDLSGRISRAR
notes: range 201-319 (mature RAP numbering); Forward mutant of m1; same construct; also called RAP K256A, K270E; not shown: N-terminal hexahistidine and S-peptide tags of pET30(+)a
B5: RAP d3 E251K, K270E (ligand, human, UniProt P30533 235-353, looked up)
chain: LDRLRRVSHQGYSTEAEFEEPRVIDLWDLAQSANLTDKELEAFREELKHFKAKIEKHNHYQKQLEIAHEELRHAESVGDGERVSRSREKHALLEGRTKELGYTVKKHLQDLSGRISRAR
notes: range 201-319 (mature RAP numbering); Forward mutant of m1; same construct; also called RAP E251K, K270E; not shown: N-terminal hexahistidine and S-peptide tags of pET30(+)a
B6: MegaRAP1 d3 (designed binder)
chain: LDRLRRVSHQGYTTEAKFEEPRVIDLWDLAQSANLTDKELEAFREELKYFKAKIEAHNHYQKQLEIAHEELRHAESVGDGERVSRSREKHALLEGRTKELGYTVKKHLQDLSGRISRAR
notes: range 201-319 (mature RAP numbering); d3 of the variant selected on LRP2 CR89; also called RAPv2A d3; RAP v2A; not shown: N-terminal hexahistidine and S-peptide tags of pET30(+)a
B7: RAP d3 H249Y (ligand, human, UniProt P30533 235-353, looked up)
chain: LDRLRRVSHQGYSTEAEFEEPRVIDLWDLAQSANLTDKELEAFREELKYFEAKIEKHNHYQKQLEIAHEKLRHAESVGDGERVSRSREKHALLEGRTKELGYTVKKHLQDLSGRISRAR
notes: range 201-319 (mature RAP numbering); Forward mutant of m1; same construct; also called RAP H249Y; not shown: N-terminal hexahistidine and S-peptide tags of pET30(+)a
B8: RAP d3 K270E (ligand, human, UniProt P30533 235-353, looked up)
chain: LDRLRRVSHQGYSTEAEFEEPRVIDLWDLAQSANLTDKELEAFREELKHFEAKIEKHNHYQKQLEIAHEELRHAESVGDGERVSRSREKHALLEGRTKELGYTVKKHLQDLSGRISRAR
notes: range 201-319 (mature RAP numbering); Forward mutant of m1; same construct; also called RAP K270E; not shown: N-terminal hexahistidine and S-peptide tags of pET30(+)a
B9: MegaRAP1 d3 T213S revertant (designed binder)
chain: LDRLRRVSHQGYSTEAKFEEPRVIDLWDLAQSANLTDKELEAFREELKYFKAKIEAHNHYQKQLEIAHEELRHAESVGDGERVSRSREKHALLEGRTKELGYTVKKHLQDLSGRISRAR
B10: MegaRAP1 d3 K251E, E270K double revertant (designed binder)
chain: LDRLRRVSHQGYTTEAKFEEPRVIDLWDLAQSANLTDKELEAFREELKYFEAKIEAHNHYQKQLEIAHEKLRHAESVGDGERVSRSREKHALLEGRTKELGYTVKKHLQDLSGRISRAR
B11: MegaRAP1 d3 A256K, E270K double revertant (designed binder)
chain: LDRLRRVSHQGYTTEAKFEEPRVIDLWDLAQSANLTDKELEAFREELKYFKAKIEKHNHYQKQLEIAHEKLRHAESVGDGERVSRSREKHALLEGRTKELGYTVKKHLQDLSGRISRAR
B12: MegaRAP1 d3 K217E revertant (designed binder)
chain: LDRLRRVSHQGYTTEAEFEEPRVIDLWDLAQSANLTDKELEAFREELKYFKAKIEAHNHYQKQLEIAHEELRHAESVGDGERVSRSREKHALLEGRTKELGYTVKKHLQDLSGRISRAR
B13: MegaRAP1 d3 E270K revertant (designed binder)
chain: LDRLRRVSHQGYTTEAKFEEPRVIDLWDLAQSANLTDKELEAFREELKYFKAKIEAHNHYQKQLEIAHEKLRHAESVGDGERVSRSREKHALLEGRTKELGYTVKKHLQDLSGRISRAR
B14: LRP2 CR89 Y1042W R1088D (receptor)
chain: PTEQCGLFSFPCKNGRCVPNYWLCDGVDDCHDNSDEQLCGTLNNTCSSSAFTCGHGECIPAHWRCDKDNDCVDGSDEHNCPTHA
notes: also called WVWD; not shown: N-terminal hexahistidine and S-peptide tag stretch of pET30(+)a
B15: LRP2 CR89 Y1042W V1047D (receptor)
chain: PTEQCGLFSFPCKNGRCVPNYWLCDGDDDCHDNSDEQLCGTLNNTCSSSAFTCGHGECIPAHWRCDKRNDCVDGSDEHNCPTHA
notes: also called WDWR; not shown: N-terminal hexahistidine and S-peptide tag stretch of pET30(+)a
B16: LRP2 CR2728 (receptor, human, UniProt P98164 3552-3631, looked up)
chain: FCRLGQFQCSDGNCTSPQTLCNAHQNCPDGSDEDRLLCENHHCDSNEWQCANKRCIPESWQCDTFNDCEDNSDEDSSHCA
notes: domain: CR2728; not shown: N-terminal hexahistidine and S-peptide tags of pET30(+)a
B17: LRP2 CR3536 (receptor)
chain: not shown
notes: domain: CR3536; the primers (LRP2CR35F, LRP2CR36R) fit CR3536; not shown: N-terminal hexahistidine and S-peptide tags of pET30(+)a

For one test, the target named is T1, LRP1 CR3-5 (human).
T1 construct: range 852-973; also called L1 CR3-5; LRP1 CR3-S [sic]
T1 sequence (Q07954 852-973): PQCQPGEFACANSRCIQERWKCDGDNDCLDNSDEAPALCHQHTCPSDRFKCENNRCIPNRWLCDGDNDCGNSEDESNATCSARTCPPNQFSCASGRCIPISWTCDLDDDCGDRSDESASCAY
The experiment in a line: solid-phase assay, coated CR protein. The protocol: (§1) Wells were washed with TBSTC and bound ligands detected with polyclonal anti-RAP (BP41/42, 1:1,000, BioMarin). Excess primary antibody was removed and wells washed before incubation with the secondary antibody, HRP-conjugated goat anti rabbit IgG (Bio-Rad). After washing, TMB substrate solutions (Bio-Rad) were added to detect HRP. Color development was stopped with 1N HCl. Absorption at 450 nm was measured with a microplate spectrophotometer (Molecular Devices). Data were plotted and Kd values derived by non-linear regression with the assumption of single-site binding (GraphPad Prism).
Next, the binding of RAP d3 and MegaRAP1 d3 proteins to LRP1 CR3-5 and LRP2 CR89 was assessed. […] In all cases, 10 mM EGTA prevented binding of both RAP d3 and MegaRAP1 d3 to CR proteins. Since calcium was the only divalent metal ion present in the binding buffer, this observation is consistent with both RAP d3 and MegaRAP1 d3 binding to calcium-loaded CR pairs. […] Therefore, wild-type RAP d3 and MegaRAP1 d3 have inverted binding preferences for these two receptor fragments.
Consider B1, for which the “% max binding” value stood at 91%.

On to B2, for which the “% max binding” value worked out at 2%.

For the molecule B3, the “% max binding” value was 100%.

Turning to B4, the “% max binding” value was 2%.

As for B5, the “% max binding” value is 4%.

Take B6: the “% max binding” value was 4%.

In the case of B7, the “% max binding” value was found to be 90%.

As to B8, the “% max binding” value came to 4%.

As to B9, the “% max binding” value came to 2%.

Take B10: the “% max binding” value came out at 16%.

As for B11, the “% max binding” value worked out at 93%.

For the molecule B12, the “% max binding” value is 2%.

As to B13, the “% max binding” value amounted to 85%.

For a further test, the target named is B6. In words: solid-phase binding assay: LRP2 CR89 variant coated on the plate, d3 ligand in solution, anti-RAP detection, absorbance. The procedure:
as §1, with “RAP ligands were then incubated with the immobilized receptor at a range of concentrations for 2 hours in the above blocking buffer supplemented with 0.05% Tween-20 at room temperature. Control wells contained no added ligand. As an additional control, to determine whether the absence of calcium affected binding, 10 mM EGTA was included in the incubation medium for some samples. Wells” for “Wells”
One premise of this work was that amino acids at A, C, A′ and C′ within the calcium-binding loops of a CR pair were key determinants of binding affinity for RAP and would be similarly important for binding of RAP variants. […] Binding to both RAP d3 and MegaRAP1 d3 were measured for each LRP2 CR89 mutant by solid-phase assay. […]
Consider B14, for which the binding result is listed as “no binding (tested: 100 nM)”.

As for B15, the binding result is listed as “no binding (tested: 100 nM)”.

In the next test the target is B6. In words: solid-phase binding assay: CR protein coated on the plate, d3 ligand at 80 nM, anti-RAP detection, blank-corrected absorbance. The procedure: (§2) RAP d3, MegaRAP1 d3, VRAP2 d3, MatRAP1d3 and MatRAP2 d3 were each incubated at 80 nM concentrations with LRP1 CR3-5, LRP6 CR12, LRP6 CR23, LRP6 CR1-3, LRP2 CR89, LRP2 CR2728, LRP2 CR3031, LRP2 CR3435, LRP2 CR34-36, VLDLR CR78, VLDLR CR6-8, MAT CR12, MAT CR23 and MAT CR34. Samples were tested twice, in duplicate, and values combined. Means and standard deviations were then calculated. Blank values obtained from wells incubated in the absence of ligand were used to correct absorbance data.
(§3) Solid phase binding assays—Purified, refolded CR protein (1 μg) was bound to Nunc Maxisorp™ 96-well plates in TBS pH 8 supplemented with 5 mM CaCl₂ (TBSC) overnight at 4° C. Wells were washed with TBSC and then blocked with TBSC containing 2% bovine serum albumin (BSA). RAP ligands were then incubated with the immobilized receptor at a range of concentrations for 2 hours in the above blocking buffer supplemented with 0.05% Tween-20 at room temperature. Control wells contained no added ligand. As an additional control, to determine whether the absence of calcium affected binding, 10 mM EGTA was included in the incubation medium for some samples. Wells were washed with TBSTC and bound ligands detected with polyclonal anti-RAP (BP41/42, 1:1,000, BioMarin). Excess primary antibody was removed and wells washed before incubation with the secondary antibody, HRP-conjugated goat anti rabbit IgG (Bio-Rad). After washing, TMB substrate solutions (Bio-Rad) were added to detect HRP. Color development was stopped with 1N HCl. Absorption at 450 nm was measured with a microplate spectrophotometer (Molecular Devices). Data were plotted and Kd values derived by non-linear regression with the assumption of single-site binding (GraphPad Prism).
(§4) The apparent dissociation constant for binding of VRAP1d3 to VLDLR CR78 was determined to be […]. We then compared binding of RAP d3, MegaRAP1 d3, VRAP1d3, MatRAP1d3 and MatRAP2 d3, each at a concentration of 80 nM, to fourteen CR pairs or triplets, including LRP1 CR3-5, LRP2 CR89, LRP2 CR2728, LRP2 CR3031, LRP2 CR34-36, LRP2 CR3536, VLDLR CR78, VLDLR CR6-8, LRP6 CR1-3, LRP6 CR12, LRP6 CR23, MAT CR12, MAT CR23 and MAT CR34 (FIG. 7).
On to B16, for which the binding result was “no binding (tested: 80 nM)”.

Regarding B17, the binding result is on record as “no binding (tested: 80 nM)”.

Another test deals with T2, RAP d3 (wild-type third domain of the receptor-associated protein) (human, UniProt P30533 235-353).
T2 construct: range 201-319 (mature RAP numbering); Expressed in E. coli from pET30(+)a; also called wild-type RAP d3; not shown: N-terminal hexahistidine and S-peptide tags of pET30(+)a
T2 sequence (looked up): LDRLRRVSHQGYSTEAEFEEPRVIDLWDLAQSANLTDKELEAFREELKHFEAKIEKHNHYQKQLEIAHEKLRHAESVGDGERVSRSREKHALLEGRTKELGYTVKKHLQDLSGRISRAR
The test is described as above. The procedure: as §2, §3, §4
With B16, the binding result is “no binding (tested: 80 nM)”.
